According to US11732048B2, “Anti-axl antagonistic antibodies” (BERGEN TEKNOLOGIOVERFØRING AS, priority 2016, dated 2023):
Read-outs that look alike come from different tables or passages of the source. Each block holds one molecule with its values, some of them ahead of it.

How the values were obtained:
[1] = target: T1, human Axl (rhAxl-Fc chimera) (Homo sapiens, UniProt P30530); test: Biacore binding analysis on immobilised human Axl; conditions: 10 μg/mL in HBS-EP, 25° C.
T1 construct: Soluble recombinant antigens corresponding to the extracellular domains of members of the human TAM receptor family; Fc; purchased R&D Systems 154-AL
Experimental: (§1) All binding experiments were performed using Biacore 3000 instrument (GE Healthcare) at 25° C. Soluble recombinant antigens corresponding to the extracellular domains of members of the human TAM receptor family, Axl (rhAxl-Fc chimera; R&D Systems, Cat. no. 154-AL), Mer (rhMer-Fc chimera; R&D Systems, Cat. no. 891-MR) and Tyro3 (rhTyro3/Dtk-Fc chimera; R&D Systems, Cat. no. 859-DK) were immobilized on the surface of CM5 sensor chip using amine coupling at the surface density of 393.0, 303.6 and 364.0 resonance units (RU), respectively. The Biacore run was performed in an automatic mode using Binding analysis wizard. Samples containing MAb 10G5 at concentration 10 μg/mL in HBS-EP buffer (GE Healthcare) were injected over the surfaces with immobilized antigens at flow rate of 30 μL/min for 3 min (association) followed by 5 min dissociation.
(§2) The binding experiments were performed using Biacore 3000 instrument (GE Healthcare) at 25° C. The soluble recombinant antigens corresponding to human Axl (rhAxl-Fc chimera; R&D Systems, Cat. no. 154-AL), mouse Axl (rmAxl-Fc chimera; R&D Systems, R&D Systems; Cat. no. 854-AX) and human Tyro3 (rhTyro3/Dtk-Fc chimera; R&D Systems, Cat. no. 859-DK) were immobilized on the surface of CM5 sensor chip using amine coupling at the surface density of 1,308.0, 2,115.9 and 1,429.0 RU, respectively. The Biacore runs were performed in an automatic mode using Binding analysis wizard.
(§3) The sample containing MAb 10G5 or recombinant mouse (rm) Axl-ligand Gas6 (R&D Systems, Cat. no. 986-GS/CF) at concentration 10 μg/mL in HBS-EP buffer (GE Healthcare) was injected over the surfaces with immobilized antigens at flow rate of 30 μL/min for 3 min (association) followed by 5 min dissociation.
The sequence of Axl receptor from cynomolgus monkey (Macaca fascicularis; SEQ ID NO: 27) was retrieved from WO2009062690A1. Based on the sequence, recombinant extracellular domain of cyno-Axl was generated by transient expression in CHO cells as a fusion protein with human Fc. The recombinant cyno-Axl-Fc was purified to homogeneity using Protein A-Sepharose (GE Healthcare). The binding experiments were performed using Biacore 3000 instrument (GE Healthcare) at 25° C. The soluble recombinant antigens corresponding to human Axl (rhAxl-Fc chimera; R&D Systems, Cat. no. 154-AL) and cyno-Axl were immobilized on the surface of CM5 sensor chip using amine coupling at the surface density of 775 and 880 RU, respectively. The Biacore runs were performed in an automatic mode using Binding analysis wizard.
The sample containing MAb 10G5 or human Axl-specific MAb 5F11 (control) at concentration 10 μg/mL in HBS-EP buffer (GE Healthcare) was injected over the surfaces with immobilized antigens at flow rate of 30 μL/min for 3 min (association) followed by 5 min dissociation. […]

[2] = target: T2, Tyro3 (rhTyro3/Dtk-Fc chimera) (Homo sapiens, UniProt Q06418); test: Biacore binding analysis on immobilised human Tyro3; conditions: 10 μg/mL in HBS-EP, 25° C.
T2 construct: Soluble recombinant antigens corresponding to the extracellular domains of members of the human TAM receptor family; Fc; purchased R&D Systems 859-DK
T2 sequence (Q06418 41-429 limits assumed): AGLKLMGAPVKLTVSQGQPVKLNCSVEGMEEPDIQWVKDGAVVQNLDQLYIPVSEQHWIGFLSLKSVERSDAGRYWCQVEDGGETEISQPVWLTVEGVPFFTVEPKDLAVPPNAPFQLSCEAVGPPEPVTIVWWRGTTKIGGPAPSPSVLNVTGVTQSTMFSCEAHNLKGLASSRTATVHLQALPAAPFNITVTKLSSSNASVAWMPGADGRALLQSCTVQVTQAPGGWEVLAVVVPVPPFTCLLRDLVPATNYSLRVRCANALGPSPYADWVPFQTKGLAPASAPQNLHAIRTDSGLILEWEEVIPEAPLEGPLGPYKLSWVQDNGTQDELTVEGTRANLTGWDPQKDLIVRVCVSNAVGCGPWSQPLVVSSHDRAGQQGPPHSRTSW
Experimental: as §1, §2, §3

[3] = target: T3, mouse Axl (rmAxl-Fc chimera; Mm-Axl-Fc) (Mus musculus, UniProt Q00993); test: Biacore binding analysis on immobilised mouse Axl
T3 construct: The soluble recombinant antigens corresponding to human Axl (rhAxl-Fc chimera; R&D Systems, Cat. no; 154-AL), mouse Axl (rmAxl-Fc chimera; Fc; purchased R&D Systems 854-AX
T3 sequence (Q00993 19-445 limits assumed, change not shown): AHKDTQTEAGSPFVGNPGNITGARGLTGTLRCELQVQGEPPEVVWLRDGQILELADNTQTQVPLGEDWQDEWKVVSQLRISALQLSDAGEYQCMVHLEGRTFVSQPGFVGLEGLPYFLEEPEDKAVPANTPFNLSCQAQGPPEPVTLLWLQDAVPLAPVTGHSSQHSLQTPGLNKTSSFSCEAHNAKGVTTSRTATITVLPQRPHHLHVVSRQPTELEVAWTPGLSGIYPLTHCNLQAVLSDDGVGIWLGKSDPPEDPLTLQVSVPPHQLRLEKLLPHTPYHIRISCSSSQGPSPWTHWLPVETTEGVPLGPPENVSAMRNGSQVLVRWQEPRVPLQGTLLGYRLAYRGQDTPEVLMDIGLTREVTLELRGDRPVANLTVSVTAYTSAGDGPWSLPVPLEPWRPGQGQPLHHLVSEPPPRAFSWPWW
Experimental: as §2, §3
Sensor chip with immobilised Axl: Hs-Axl-Fc (638.2 RU), Mm-Axl-Fc (334.5 RU), Rhe-Axl-Fc (350.2 RU)
All tests were performed in parallel on Hs-Axl-Fc, Mm-Axl-Fc and Rhe-Axl-Fc surfaces.

[4] = target: T1, human Axl (rhAxl-Fc chimera); test: Biacore kinetic analysis (surface plasmon resonance) on immobilised rhAxl-Fc; assay type: binding
Experimental: Kinetic analysis of murine MAb 10G5 interacting with rhAxl immobilized on the surface of the Biacore sensor chip. Overlay plots of sensograms for different antibody concentrations (0.3-166.7 nM for murine 10G5) are shown. The precise kinetic analysis was performed using BIA evaluation software and curve fitting according to 1:1 Langmuir binding model. […]
Affinity determination of anti-Axl antibody 10G5 was performed at 25° C. by surface plasmon resonance measurements using Biacore 3000 instrument (GE Healthcare). As a solid antigen-coated surface, a sensor chip CM5 with immobilized rhAxl-Fc chimera (R&D Systems, Cat. no. 154-AL) at density 190 RU was used.
For the kinetics measurements, different concentrations of anti-Axl antibodies (from 0.3 to 666.7 nM) in HBS-EP buffer (Biacore, Cat. no. BR-1001-88) were injected at flow rate of 30 μL/min with 3 min injection time followed by 5 min dissociation (buffer alone). After each cycle, the surface was regenerated by 30 sec injection of a regeneration solution (10 mM HCl, 1 M NaCl) at flow rate 50 μL/min.
The kinetic association (on-rate, kon) and dissociation (off-rate, koff) rates were calculated using BIAevaluation software and 1:1 Langmuir binding model. The equilibrium dissociation constant (KD) was calculated as the koff/kon ratio. The half-life (t1/2) of the formed antibody-antigen complexes was calculated as the ln 2/koff ratio. […]

[5] = rhAxl immobilized on Biacore sensor chip, 25° C., 1:1 Langmuir binding model

- Binding to human Axl [1]: strong binding
- Binding to human Axl ([1]; listed as murine Gas 6): binds strongly
- Binding to recombinant human Tyro3 [2]: somewhat weaker binding
- Binding to recombinant human Tyro3 ([2]; listed as murine Gas 6): more weakly
- Binding to mouse Axl [3]: strong binding
- Binding to mouse Axl ([3]; listed as murine Gas 6): binds strongly
B1: mouse Gas6: recombinant mouse Axl-ligand Gas6 (R&D Systems) (protein)
chain: QCTPNPCDKKGTHICQDLMGNFFCVCTDGWGGRLCDKDVNECVQKNGGCSQVCHNKPGSFQCACHSGFSLASDGQTCQDIDECTDSDTCGDARCKNLPGSYSCLCDEGYTYSSKEKTCQDVDECQQDRCEQTCVNSPGSYTCHCDGRGGLKLSPDMDTCEDILPCVPFSMAKSVKSLYLGRMFSGTPVIRLRFKRLQPTRLLAEFDFRTFDPEGVLFFAGGRSDSTWIVLGLRAGRLELQLRYNGVGRITSSGPTINHGMWQTISVEELERNLVIKVNKDAVMKIAVAGELFQLERGLYHLNLTVGGIPFKESELVQPINPRLDGCMRSWNWLNGEDSAIQETVKANTKMQCFSVTERGSFFPGNGFATYRLNYTRTSLDVGTETTWEVKVVARIRPATDTGVLLALVGDDDVVPISVALVDYHSTKKLKKQLVVLAVEDVALALMEIKVCDSQEHTVTVSLREGEATLEVDGTKGQSEVSTAQLQERLDTLKTHLQGSVHTYVGGLPEVSVISAPVTAFYRGCMTLEVNGKILDLDTASYKHSDITSHSCPPVEHATP

- KD lower than that of the chimeric antibody ([4]; comparison referring to Table 3): at least 30%
- Off-rate (koff) [4, 5]: 0.000161 s⁻¹
- On-rate (kon) [4, 5]: 1.54e+06 M⁻¹ s⁻¹
B2: H1L1: humanised 10G5 variant; presumably VH GH1 (SEQ ID NO: 1) with VL GL1 (SEQ ID NO: 3) (antibody, V domains shown)
VH: EVQLVQSGAGLVQPGGSVRLSCAASGYSFTDFYINWVRQAPGKGLEWIARIFPGGDNTYYNEKFKGRFTLSADTSSSTAYLQLNSLRAEDTAVYYCARRGLYYAMDYWGQGTLVTVSS
VL: DIQMTQSPSSLSASVGDRVTITCRSSQSLVHSNGIPYLHWYQQKPGKAPKLLIYRVSNRFSGVPSRFSGSGSGTDFTLTISSLQPEDFATYYCSQGTHVPPTFGQGTKVEIK
modifications: hu10G5 VH(GH1); hu10G5 VL(GL1)
